# ± gives the uncertainty stated by the source.
# Assay: protein stability index of a GFP-peptide fusion (yeast GPS) (PSI 1-4); higher = more stable; sorted into four equal gates, so the index is relative within each strain
# Settings: doa10∆
# Method in brief: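 Sequencing reads from sorted gates were used to score each peptide. The library consisted of tiled 17-residue yeast protein peptides fused downstream of GFP on a Cherry-expressing plasmid, pooled and carried in yeast. Mid-log cultures in leucine-free medium were split into four equal gates by GFP/Cherry ratio, and each gate's plasmids were PCR-amplified and Illumina-sequenced. The protein stability index adds up, over all gates, the read frequency multiplied by the gate number.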
row,Sequence,protein stability index
1,TKIFNSVAEVFQKAQGS [YCG1],1.89 ± 0.12
2,TKIKPFIKVVNYNHLLP [RPL27A],2.49 ± 0.072

# Same assay, conditions: pdr5∆
row,Sequence,protein stability index
1,SVINNYLREDQMIDTSI [NUT1],3.32 ± 0.1
2,SVIQLCGGINDSIPYPQ [ECM29],2.59 ± 0.23
3,SVIVDSKVTVPPSKHST [ESC2],2.93 ± 0.089
4,SVKPHVVEPEHMADAKI [SIR4],2.92 ± 0.14
5,SVLLQQLLTPGSKISSN [YGL172W/NUP49],2.83 ± 0.089
6,SVLNPFLLRRVKADVEK [ISW2],1.09 ± 0.068
7,SVMDPITSKRKAELLLK [DIS3],2.76 ± 0.12
8,SVPLMINAKNIAFASNY [RRP43],1.53 ± 0.051
9,SVPLVIGQFLEPIDQNT [RPT3],2.77 ± 0.095
10,SVQINVAKVDEEGRAIP [RPS21A],3.23 ± 0.089
11,SVSPQMNAILTDVKLTL [SMD1],2.85 ± 0.062
12,SVVSQIEKGSTFGINLI [FAS1],3.06 ± 0.11
13,SWRNITNLSGGEKTLSS [SMC4],3.21 ± 0.078
14,SYAVSPYAQKPLQGIFH [QCR8],2.4 ± 0.061
15,SYDVENVNSRNQLVEPN [SRB5],3.26 ± 0.14
16,SYPILNESSTFLKLVLS [SIN4],2.27 ± 0.034
17,SYPVNGSQKTFEIDDEH [RPS6A],2.72 ± 0.12
18,SYRNAFTNVLTKYSDVL [YJL039C/NUP192],1.72 ± 0.059
19,SYVVPRLYLKDQTNHIE [ECM29],1.83 ± 0.046
20,TAAYARTIGIAVDHRRQ [RPL13A],1.58 ± 0.05
21,TAEFGKILAGLHDTQIE [RPN10],3.44 ± 0.11
22,TANALPLPAVFSAPIRP [RPL4A],2.1 ± 0.042
23,TAQKYPIYTGDGWVKLT [YMR153W/NUP53],1.77 ± 0.06
24,TARINNRRLFKKCIDFF [RRI2],2.18 ± 0.059
25,TARVMGGLKNGVLYQGN [DIS3],3.3 ± 0.071

row,Sequence,protein stability index
1,TATASLGVIHKGNLLEG [RPN2],1.84 ± 0.082
2,TCQILESGEDEAEFSLR [RRP46],2.62 ± 0.28
3,TDIKQFLELTRRADVKT [RPL38],3.29 ± 0.17
4,TDKIGRSVPAPGKGILT [FAS2],3.16 ± 0.13
5,TDKKAFLGALKYLPHAI [PRP8],2.92 ± 0.097
6,TDKSNSPIGFTNSPQIS [SMC2],3.16 ± 0.054
7,TDQSTEEEKSVDASPND [CSL4],2.8 ± 0.21
8,TDSSALTYDRLEFATIR [PRE9],3.27 ± 0.076
9,TDSWESFFVSVRKAITV [FAS1],2.4 ± 0.17
10,TEEKCKNFIESESVGAF [YJL039C/NUP192],3.23 ± 0.088
11,TEFSKNDLEVGVATKDK [SCL1],3.03 ± 0.068
12,TEGRSRDGGLRLGEMER [RET1],1.82 ± 0.12
13,TEHLTELSDNEENFEAT [YCG1],3.15 ± 0.16
14,TEKLKISPESVFGTLGE [SMC3],2.34 ± 0.066
15,TEKMEEQLDLLSAILDP [MED11],3 ± 0.1
16,TELRQLFQENDDDDDDD [DSN1],2.36 ± 0.071
17,TENEKFISYHDKYLCML [NUT1],3 ± 0.055
18,TEQIKMRILSNDITNLQ [SRB8],2.31 ± 0.037
19,TETSNEDEDEDDETPSC [SNU114],2.75 ± 0.058
20,TEVIIRATRTQDVLGEN [RPS3],2.92 ± 0.12
21,TEVRAEDEAALAKLVST [RPL8A],2.93 ± 0.06
22,TEYFENKQSVSNLSPDL [DSN1],3.4 ± 0.1
23,TFENINSLFYLKWSACT [IRR1],1.35 ± 0.082
24,TFHHHGRQTVLIKDNSA [SRB2],2.52 ± 0.21
25,TFIYGYCDKNFRENMSK [PRE3],2.17 ± 0.066

row,Sequence,protein stability index
1,TFKDGVILGADSRTTTG [PRE3],2.8 ± 0.12
2,TFLVSNDDEVSQFCYVS [RPN14],2.55 ± 0.23
3,TFNSKPVRTIVPISTSQ [SIR4],2.46 ± 0.037
4,TFPVGRVHRLLRRGNYA [HTA1],2.86 ± 0.14
5,TFRIFHNHDTGCDENDS [YDL088C/ASM4],3.09 ± 0.14
6,TFTQLVSSSLYERRFGP [PUP3],2.94 ± 0.16
7,TGEKPIITGSTSTSSSN [MED8],2.52 ± 0.04
8,TGEWFSSYEEFLERFDF [ITC1],1.99 ± 0.06
9,TGGTRTKTPGPGGQAAL [RPS14A],3.11 ± 0.036
10,TGNNNNIATQQNMQQSL [GAL11],2.49 ± 0.077
11,TGWITQSTPVLLNHGER [RPN1],2.23 ± 0.044
12,THFLLNIYDQLRNKLIE [RRP6],2.69 ± 0.062
13,THIAESAKEIAKASGCD [MCD1],3.4 ± 0.19
14,THIPQTNLKNHPAYLFK [YLR018C/POM34],2.83 ± 0.04
15,THRNKDGTGVRVIVAGT [FAS1],1.59 ± 0.082
16,TIGAIFLNHAFDYMNRY [CDC53],2.1 ± 0.066
17,TINISLSFSWAILLIIN [NUT1],1.61 ± 0.054
18,TINLDRFMKGRRSKQLI [RPC82],2.64 ± 0.078
19,TIQSDLNLSLHKLDLAK [SMC2],2.79 ± 0.035
20,TIQYDPPETKLPYPTYW [SNF5],2.93 ± 0.042
21,TISEKEQDILDLIAEQV [SSN2],3.25 ± 0.15
22,TIVLSLNVKCTRNPDAP [RPC40],2.14 ± 0.18
23,TKDLLSKSPSEWQDIIH [CSE2],2.99 ± 0.077
